# Data from the supplement of paper PMC10724198.
# ± gives the standard deviation of the averaged measurements.
# Tested on: Saccharomyces cerevisiae
# Assay: protein stability index of tFT-peptide fusion (C-terminal peptide) (PSI (0-1 scale)); higher = more stable (slower turnover)
# Settings: genetic background: wild type; temperature: 30 C
# Description: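 Multiplexed protein stability (MPS) profiling in S. cerevisiae. Random 12-aa peptides (tFT-X12 library) are fused to the C-terminus of a sfGFP-mCherry tandem fluorescent timer, after mCherry and a GGGS linker. Cells are FACS-sorted into 8 mCherry/sfGFP bins and deep-sequenced. The protein stability index (PSI) is the read-weighted bin average, scaled from 0 (unstable) to 1 (stable). Only peptides with >10 reads are reported; cells were grown at 30 °C in SC-His with glucose.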
# 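Note: PSI is a weighted mean of sequencing reads over stability bins, variants kept only with over 10 reads, mCherry proximal and sfGFP distal, peptide attached via GGGS linker.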
row,Sequence,protein stability index
1,AVKRNDALGIQF,0.718 ± 0.046
2,AVLFDQLGGRWR,0.614 ± 0.061
3,AVLTDKKGRVRS,0.703 ± 0.036
4,AVLTLRAPPSAL,0.708 ± 0.025
5,AVPRPSPPPPPL,0.674 ± 0.0086
6,AVQESVSHSLVL,0.723 ± 0.0012
7,AVRLALAPQVGA,0.617 ± 0.018
8,AVRPGEAGCAGL,0.664 ± 0.12
9,AVRSILYRVATR,0.729 ± 0.06
10,AVVVDWLAQVLH,0.757 ± 0.068
11,AVYRPFPFRSGI,0.699 ± 0.015
12,AWCGGVVGVAWL,0.6661 ± 0.0062
13,AWCLLTRWDLLL,0.609 ± 0.0014
14,AYGVGQERWVRE,0.725 ± 0.061
15,AYKCLPAKGADS,0.695 ± 0.047
16,AYLCLLPPFFTV,0.674 ± 0.037
17,AYQFLCFSGMIT,0.761 ± 0.27
18,AYSMMNLYNFAL,0.67 ± 0.014
19,AYVSLRASLLSS,0.633 ± 0.063
20,CAGRVWVGLCGV,0.685 ± 0.094
21,CARYFFLHPSLG,0.67961 ± 1.3e-05
22,CASPSPPPAPVL,0.68 ± 0.022
23,CCGLYLGAGCAY,0.674 ± 0.017
24,CCLFLACANFFV,0.551 ± 0.031
25,CCLSFMSPFFCF,0.75 ± 0.026
26,CCVSFFISFGGR,0.554 ± 0.03

row,Sequence,protein stability index
1,CCVYFLSMFFVL,0.575 ± 0.026
2,CDCIAFISRSFS,0.675 ± 0.039
3,CDGPFRLVLGGG,0.672 ± 0.018
4,CDRVIGSRGVTY,0.688 ± 0.0071
5,CEAWLTDEGLRD,0.742 ± 0.016
6,CERHWADRNTSV,0.7445 ± 0.0064
7,CFCWLFLVGRAD,0.5734 ± 0.0024
8,CFCYSLSINLNL,0.522 ± 0.0072
9,CFGFAGVGSLSC,0.752 ± 0.13
10,CFGFSLKFGTGK,0.668 ± 0.033
11,CFKETLLKGSRQ,0.718 ± 0.034
12,CFLPACPSPGDS,0.737 ± 0.075
13,CFLPGFYFLFSI,0.561 ± 0.033
14,CFPLPRPLPYME,0.654 ± 0.12
15,CFSCLWVPLLPS,0.649 ± 0.008
16,CFSMGKRGLRGR,0.686 ± 0.026
17,CFSSLRFCLPSV,0.686 ± 0.00021
18,CFVSFFWRCFFG,0.515 ± 0.045
19,CFWTSFVWPGCA,0.684 ± 0.00095
20,CGAGIYTRCTGR,0.6613 ± 0.001
21,CGALRLPSSREV,0.604 ± 0.021
22,CGGKTEKRKKYT,0.6062 ± 0.0034
23,CGGRKTPPPPRH,0.688 ± 0.054
24,CGGRWGTYYRRV,0.7 ± 0.042
25,CGGSCLQDGGWA,0.787 ± 0.1
26,CGHMSTSNANLS,0.687 ± 0.051

row,Sequence,protein stability index
1,CGLGGLYLVLHD,0.671 ± 0.067
2,CGLRVVGVVGAP,0.712 ± 0.062
3,CGLSYSAVDLGV,0.684 ± 0.01
4,CGPRPDSIDVGF,0.608 ± 0.052
5,CGRFCLQGEYIV,0.705 ± 0.12
6,CGRPRGVEPGGA,0.754 ± 0.12
7,CGSDRINACVRI,0.727 ± 0.032
8,CGSVEVVVVRGS,0.587 ± 0.054
9,CGTPDLGLLRAT,0.74 ± 0.054
10,CGVSPPHANLVS,0.569 ± 0.036
11,CGVVSSSVDCIN,0.699 ± 0.028
12,CHYSSFISFVVV,0.594 ± 0.024
13,CICFLDGCSFVN,0.755 ± 0.14
14,CIFCCGWCLDRL,0.719 ± 0.058
15,CIFFSPFSFLLP,0.654 ± 0.035
16,CILPFFFFVSPD,0.652 ± 0.084
17,CIRGFQVRGYFK,0.791 ± 0.19
18,CIVDFLGISSGI,0.659 ± 0.057
19,CKKGCTEVKNAV,0.719 ± 0.084
20,CLAPSIPPPLSS,0.702 ± 0.036
21,CLFPPTARHSFP,0.778 ± 0.036
22,CLFPPYDYFFPF,0.734 ± 0.091
23,CLGPDWWARRSI,0.772 ± 0.064
24,CLGRLRLMSSCR,0.688 ± 0.044
25,CLLAAMTFYTVR,0.711 ± 0.029
26,CLPSLPPFPASL,0.738 ± 0.064

row,Sequence,protein stability index
1,CLQRPVSAGMVT,0.676 ± 0.027
2,CLSGVLDFLLFL,0.648 ± 0.0085
3,CLSILRNVVPII,0.723 ± 0.08
4,CLSLVCGFPVVY,0.605 ± 0.0099
5,CLTHLLPPAFPC,0.694 ± 0.018
6,CMEYFMHFVKGD,0.701 ± 0.06
7,CMFRCCLRSLVL,0.639 ± 0.0064
8,CMGASRTRILTR,0.681 ± 0.046
9,CNCGGRGCGWMR,0.651 ± 0.025
10,CNDAYKSKLARL,0.696 ± 0.034
11,CNGVGRLPGTPG,0.685 ± 0.0086
12,CNQRRWRGRKGY,0.67 ± 0.01
13,CPCAWFSFLCFS,0.666 ± 0.0066
14,CPPPFLCSPFVA,0.669 ± 0.022
15,CPPPPPRPPLPP,0.689 ± 0.056
16,CPPVRLSLPPSL,0.68 ± 0.019
17,CPSSFSALSNSR,0.671 ± 0.049
18,CQFHHHPDLTIK,0.609 ± 0.077
19,CRASGGVSCGAS,0.639 ± 0.046
20,CRCTKVVVFGYP,0.667 ± 0.022
21,CRGPTQFAGPAP,0.68 ± 0.088
22,CRILSPLPAIFV,0.5298 ± 0.0045
23,CRLILLVCNGAG,0.521 ± 0.027
24,CRSGSGGGIRGR,0.741 ± 0.011
25,CRSRRPFGSDPI,0.69 ± 0.019
26,CRTGHCRLTSKM,0.708 ± 0.019

row,Sequence,protein stability index
1,CRVWRAPSGWVG,0.646 ± 0.03
2,CRWRLGRLARCA,0.515 ± 0.0084
3,CSATVLSNCTFP,0.687 ± 0.051
4,CSEHFLIDTYPA,0.679 ± 0.05
5,CSLGCSLSALDS,0.663 ± 0.025
6,CSMGGWPTERGI,0.6968 ± 0.0039
7,CSPGLSGCVSYV,0.665 ± 0.12
8,CSRDWRCNVRPV,0.715 ± 0.022
9,CSSEGFSLASMI,0.707 ± 0.025
10,CSWNLLAHPPAQ,0.744 ± 0.0093
11,CSYIQTSKTVVS,0.756 ± 0.082
12,CTAVGFISFWMA,0.629 ± 0.081
13,CTIAPSIFFTRG,0.704 ± 0.11
14,CTVWGLWRGWTA,0.7389 ± 0.0041
15,CVAGSGRGGVKR,0.6327 ± 0.0037
16,CVCHWTALCIQI,0.512 ± 0.013
17,CVFSEMIVCDGG,0.566 ± 0.049
18,CVGQYVHWDLLV,0.549 ± 0.011
19,CVIGDKRRSKAI,0.6808 ± 0.0021
20,CVLPVSVIWVLR,0.575 ± 0.018
21,CVLVGGVPAGGG,0.6174 ± 0.0028
22,CVLWLISLLPDR,0.563 ± 0.068
23,CVRPAPGSGGWQ,0.6429 ± 0.0041
24,CVTLPPHPLPPP,0.6623 ± 0.0058
25,CWGGRSYVYNIG,0.662 ± 0.016
26,CWNVLVPFDEVI,0.6 ± 0.08

row,Sequence,protein stability index
1,CWSRLADSFVSL,0.683 ± 0.05
2,CYGFCVRTYPAI,0.684 ± 0.037
3,CYLSVGVASWNS,0.6816 ± 0.0026
4,DAACDSGLSAEW,0.722 ± 0.015
5,DAAFRMTRLVVR,0.6172 ± 0.0015
6,DAGRETGRLVGG,0.708 ± 0.032
7,DAIHSPALLASP,0.715 ± 0.092
8,DALVQVFANVGA,0.6629 ± 0.0059
9,DALWLAFFDVID,0.711 ± 0.068
10,DARLSPVRNRLF,0.652 ± 0.17
11,DASVIPAKPRRS,0.69 ± 0.041
12,DAVVPSSTVPLL,0.7001 ± 0.0022
13,DCDVLCGSGRRR,0.703 ± 0.026
14,DCLFQSKLNTYD,0.676 ± 0.041
15,DCNQLRGRAFRL,0.719 ± 0.034
16,DCPAVLLYAVNW,0.501 ± 0.054
17,DCVACFFFYSGG,0.599 ± 0.0099
18,DCWAGGGLCGWG,0.719 ± 0.05
19,DDCFCGRFWVVV,0.6787 ± 0.0032
20,DEEVGWGRGGGW,0.673 ± 0.011
21,DENLYGGFRTSM,0.725 ± 0.0078
22,DFCPCPRWFLRR,0.715 ± 0.086
23,DFIAGGSRPFLV,0.715 ± 0.015
24,DFIEINFDLFPP,0.6382 ± 0.00098
25,DFLRCPPLFEFS,0.721 ± 0.087
